According to patent publication US20240228656A1:

B1: EPL145 (VHH)
VHH: QVQLQESGGGLVQAGGSLRLSCAASGFIFRAASMGWFRQSPGNERELVATVSSGGFTNYADSVKGRFTISRDNAKNTVYLQMNSLKPEDTAVYFCGATFVRSDGHHTIYGQGTQVTVSS
B2: EPL159 (VHH)
VHH: QVQLQESGGGLVQAGGSLRLSCAASGFAFGNHWMYWYRQAPGRGRELVASISSGGSTNYVDSVKGRFTISRDNARNTVYLQMYSLKPEDTAVYYCGTSDNWGQGTQVTVSS

Target: cynomolgus EpCAM protein (cynomolgus)
Assay: colorimetric ELISA

Chain of cynomolgus EpCAM protein (cynomolgus) (Q1WER1 27-265 limits assumed): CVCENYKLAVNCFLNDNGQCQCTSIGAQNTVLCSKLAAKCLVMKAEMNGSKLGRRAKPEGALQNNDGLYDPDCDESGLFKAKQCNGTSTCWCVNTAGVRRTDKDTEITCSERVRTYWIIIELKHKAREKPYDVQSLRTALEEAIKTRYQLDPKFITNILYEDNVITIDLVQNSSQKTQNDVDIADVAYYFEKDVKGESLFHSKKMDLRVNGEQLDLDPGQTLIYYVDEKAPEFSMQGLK

Binder	Cynomolgus EpCAM/Control	ELISA absorbance
B1	2	0.4 absorbance
B2	2	0.2 absorbance
